Assay results as given in PMC3086075.

Assays:
Test in all cases: discontinuous malachite green phosphate-release assay, Michaelis-Menten fit
Assay type in all cases: biochemical, Pasteurella multocida
Conditions in all cases: 200 mM sodium acetate pH 5.5, 1 mM MgCl2, 37 °C, apparent Km
[1] = substrate: NC(=O)c1ccc[n+]([C@@H]2O[C@H](COP(=O)([O-])O)[C@@H](O)[C@H]2O)c1
[2] = substrate: Nc1ncnc2c1ncn2[C@@H]1O[C@H](CO)[C@@H](O)[C@H]1OP(=O)(O)O
[3] = substrate: Nc1ncnc2c1ncn2[C@@H]1O[C@H](CO)[C@@H](OP(=O)(O)O)[C@H]1O
[4] = substrate: Nc1ncnc2c1ncn2[C@@H]1O[C@H](COP(=O)(O)O)[C@@H](O)[C@H]1O
[5] = substrate: O=[N+]([O-])c1ccc(OP(=O)(O)O)cc1

B1: rPmCCAP (Pasteurella multocida) (protein)
chain: SNQQAVEQANQAKLQQQVAMGLIWTQQSGEYAALAHQAFNSAKMAFDHAKAKKGKKKAVVVDLDETMIDNSAYAGWQVQSGQGFSPKTWTKWVDARQSAAIPGAVEFSNYVNANGGTMFFVSNRRDDVEKAGTVDDMKRLGFTGVNDKTLLLKKDKSNKSVRFKQVEDMGYDIVLFVGDNLNDFGDATYKKSNAERRDFVAKNSKAFGKKFIVLPNTQYGDWEGGLDKNYFKGDSQSKLDVRAKAIHAWDGK
B1 showed a Km [1] of 0.29 ± 0.06 mM, a kcat [1] of 4.4 ± 0.3 s⁻¹ and a kcat/Km [1] of 15000 ± 3300 M⁻¹ s⁻¹. The Km [2] was 1.4 ± 0.3 mM, the kcat [2] was 0.13 ± 0.01 s⁻¹ and the kcat/Km [2] was 90 ± 21 M⁻¹ s⁻¹. It also gave a Km [3] of 0.8 ± 0.2 mM, a kcat [3] of 0.19 ± 0.01 s⁻¹ and a kcat/Km [3] of 240 ± 61 M⁻¹ s⁻¹. It also gave a Km [4] of 0.08 ± 0.01 mM, a kcat [4] of 0.18 ± 0.01 s⁻¹ and a kcat/Km [4] of 2300 ± 310 M⁻¹ s⁻¹. For the same protein, the Km [5] was 0.5 ± 0.1 mM, the kcat [5] was 6.2 ± 0.5 s⁻¹ and the kcat/Km [5] was 12000 ± 2700 M⁻¹ s⁻¹.
